pKd: −log10 of the molar value. Like-named read-outs stand apart in the source and are kept apart here.

For one substance, Kd results are on record in PMC6182147.

Assay [1] has as its target Clp-GST (L. enzymogenes Clp purified as GST-fusion) (Lysobacter enzymogenes) (UniProt Q7WZ07). The assay is described as follows: MST.
The target is the same in assay [2]. The assay is described as follows: MST. The source holds these as a separate data set.

In the case of “LchP-PGE-MBP (cytoplasmic fragment of LchP, PAS+GGDEF+EAL domains, fused to maltose binding protein) (domain or fragment)”, the pKd is 8.85 in assay [1] and 8.14 in assay [2].

For orientation: pKd means the negative decadic logarithm of the Kd, by convention in mol/L. A lower pKd goes with a high Kd.
